The experiment concerns the target oligo containing the consensus motif. The experiment is described as follows: Fluorescence polarization DNA binding assay, consensus oligo. The arrangement: species or system human. Particulars: purified GST fusion protein, 17-bp oligo containing the consensus motif, read-out: dissociation constant (KD). As to the method: The fragment of Human ZNF410 (NP_001229855.1) comprising of five zinc finger domains ZF1-5 (residues 217-366) was cloned into pGEX-6P-1 vector with a GST fusion tag (pXC2180). The plasmid was transformed into Escherichia coli strain BL21-Codon-plus(DE3)-RIL (Stratagene). Bacteria was grown in LB broth in a shaker at 37° C. until reaching the log phase (A600 nm between 0.4 and 0.5), the shaker temperature was then set to 16° C. and 25 μM ZnCl2 was added to the cell culture. When the shaker temperature reached 16° C. and A600 nm reached ˜0.8, the protein expression was induced by the addition of 0.2 mM isopropyl-3-D-thiogalactopyranoside with subsequent growth for 20 hours at 16° C. […]
Fluorescence polarization (FP) method was used to measure the binding affinity using a Synergy™ 4 Microplate Reader (BioTek). […]
To further gain insight into the molecular basis of how the ZNF410 tandem ZF domain recognizes its targeting DNA sequence, crystallization of the ZNF410-DNA complex was performed. The binding affinity of the ZNF410 ZF domain (ZF1-5) with the consensus motif was quantified by fluorescence polarization using purified GST fusion protein (Patel, et al. (2016) Methods Enzymol., 573:387-401). […]

B1: ZF1-5: fragment of human ZNF410 comprising five zinc finger domains ZF1-5 (residues 217-366); dominant-negative when overexpressed (protein)
chain: KKLKCTVEGCDRTFVWPAHFKYHLKTHRNDRSFICPAEGCGKSFYVLQRLKVHMRTHNGEKPFMCHESGCGKQFTTAGNLKNHRRIHTGEKPFLCEAQGCGRSFAEYSSLRKHLVVHSGEKPHQCQVCGKTFSQSGSRNVHMRKHHLQLG
modifications: left off: small tags and cut ends
notes: fragment of human ZNF410 comprising five zinc finger domains ZF1-5 (residues 217-366); dominant-negative when overexpressed
The term Kd denotes the concentration at which binding is half-saturated. Consider B1, for which the Kd is 22 nM.
